# According to article PMC7495481, “Sequence specificity analysis of the SETD2 protein lysine methyltransferase and discovery of a SETD2 super-substrate” (Communications Biology, 2020):
# Ends that are not written are not given here.
# B1: STAT1: known non-histone substrate of SETD2, methylated at K525 (protein, UniProt P42224 2-750, looked up)
# Signal transducer and …: SQWYELQQLDSKFLEQVHQLYDDSFPMEIRQYLAQWLEKQDWEHAANDVSFATIRFHDLLSQLDDQYSRFSLENNFLLQHNIRKSKRNLQDNFQEDPIQMSMIIYSCLKEERKILENAQRFNQAQSGNIQSTVMLDKQKELDSKVRNVKDKVMCIEHEIKSLEDLQDEYDFKCKTLQNREHETNGVAKSDQKQEQLLLKKMYLMLDNKRKEVVHKIIELLNVTELTQNALINDELVEWKRRQQSACIGGPPNACLDQLQNWFTIVAESLQQVRQQLKKLEELEQKYTYEHDPITKNKQVLWDRTFSLFQQLIQSSFVVERQPCMPTHPQRPLVLKTGVQFTVKLRLLVKLQELNYNLKVKVLFDKDVNERNTVKGFRKFNILGTHTKVMNMEESTNGSLAAEFRHLQLKEQKNAGTRTNEGPLIVTEELHSLSFETQLCQPGLVIDLETTSLPVVVISNVSQLPSGWASILWYNMLVAEPRNLSFFLTPPCARWAQLSEVLSWQFSSVTKRGLNVDQLNMLGEKLLGPNASPDGLIPWTRFCKENINDKNFPFWLWIESILELIKKHLLPLWNDGCIMGFISKERERALLKDQQPGTFLLRFSESSREGAITFTWVERSQNGGEPDFHAVEPYTKKELSAVTFPDIIRNYKVMAAENIPENPLKYLYPNIDKDHAFGKYYSRPKEAPEPMELDGPKGTGYIKTELISVSEVHPSRLQTTDNLLPMSPEEFDEVSRIVGSVEFDSMMNTV
# Columns and labels:
# SETD2 [1] = target: T1, SETD2 (Homo sapiens, UniProt Q9BYW2); details: H3K36 peptide, previously determined under the same conditions; ref [30]; cited from earlier work
# T1 construct: SETD2 catalytic SET domain (amino acids 1347–1711, UniProt No: Q9BYW2); made in house; host or cells: E. coli
# T1 sequence (Q9BYW2 1347-1711): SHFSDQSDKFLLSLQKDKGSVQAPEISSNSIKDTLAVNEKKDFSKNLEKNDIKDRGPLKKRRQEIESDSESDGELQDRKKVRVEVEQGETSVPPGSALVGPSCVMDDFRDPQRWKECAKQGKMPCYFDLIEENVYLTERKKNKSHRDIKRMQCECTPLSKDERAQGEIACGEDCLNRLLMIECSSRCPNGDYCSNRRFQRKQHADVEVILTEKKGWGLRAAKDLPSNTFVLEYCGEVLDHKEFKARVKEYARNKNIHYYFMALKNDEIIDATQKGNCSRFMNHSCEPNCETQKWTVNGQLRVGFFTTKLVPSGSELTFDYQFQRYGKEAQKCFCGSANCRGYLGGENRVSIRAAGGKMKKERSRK
# SETD2 [2] = target: T1, SETD2; assay: Protein methylation assay (non-histone proteins, GST fusions, nucleosomes, H3.1); assay type: biochemical; details: equal amounts; 6 µM SETD2, 0.76 µM AdoMet, 3 h, 25 °C; autoradiography
# Text: The 9 new putative non-histone substrates of SETD2 were cloned into a pGEX-6p2 bacterial expression vector for protein expression. Six of them could be expressed and purified through glutathione sepharose beads (Table 1). For comparison, the super-substrate sequence was cloned with a […] GST-tag (ssK36-GST) to mimic the natural setting of the H3K36 site in the N-terminal tail of histone 3. Similar amounts of the purified non-histone substrate proteins and the ssK36-GST protein were loaded on an SDS-gel and stained with Coomassie BB (Supplementary Fig. 6a). Afterward protein methylation reactions were conducted using radioactively labeled AdoMet and the radioactive signal of the methyl group transfer was detected by autoradiography (Supplementary Fig. 6b). […] Next, we aimed to confirm the FBN1 methylation at the predicated target lysine K666. For this, a K666R mutation was introduced and the wildtype and mutant FBN1 proteins were purified by affinity chromatography. […]
# Protein methylation reactions were performed in 40 µl methylation buffer containing 0.76 µM radioactive labeled AdoMet (PerkinElmer), approximately 20 µg of substrate protein and 6 µM SETD2 enzyme (if not otherwise indicated) for 3 h at 25 °C. […] The radioactive methylation signal was detected by a hyperfilm^TM high performance autoradiography film (GE Healthcare) at −80 °C in the dark. […]
# SETD2 [3] = target: T1, SETD2; assay: Western Blot detection of GST fusion methylation by SETD2 with H3K36me3 antibody; assay type: biochemical; details: incubated with SETD2 and unlabeled AdoMet
# Procedure: Supplementary Fig. 9: Control experiments related to Fig. 6c. a Validation of the detection of ssK36-GST methylation by the α-H3K36me3 antibody. The purified ssK36-GST and H3K36-GST substrates were incubated with SETD2 and unlabeled AdoMet. Afterwards, the proteins were separated by SDS-PAGE and blotted. Western Blot […]
# of H3K36-GST methylation by SETD2 observed in Fig. 6a and 6b. Equal loading of the GST-tagged proteins is shown in the Coomassie BB stain of a parallel gel, equal loading of SETD2 is shown in the Ponceau S stain of the Western Blot membrane. b YFP-tagged ssK36 and H3K36 substrates were transfected into HEK293 cells together with DsRed-tagged SETD2 or DsRed empty vector (EV). The expression levels of DsRed-SETD2 and DsRed from EV were determined […]
# Example of the FACS primary data for DsRed expression. d Average fraction of DsRed positive cells in three independent experiments normalized to DsRed-SETD2 + YFP-ssK36. EV, empty […]
# (1 picture or pasted object on this page, not shown here)
# SETD2 [4] = target: T1, SETD2; assay: Peptide SPOT array methylation of reported SETD2 substrates; assay type: biochemical; details: SPOT array on cellulose membrane; 0.76 µM radioactive AdoMet, 3–6 µM SETD2, 60 min, pH 9; autoradiography
# Procedure: Next, the SETD2 activity was tested on peptide SPOT arrays containing fifteen amino acid long peptides immobilized on a cellulose membrane. As reported SETD2 substrates, the H3K36 (29–43), α -tubulin (33–47) and STAT1 (518–532) peptides (with the target lysine centered in each case) were included, and peptides with the corresponding target lysine mutated to alanine were used as negative controls. The peptide array was incubated in methylation buffer supplemented with SETD2 and radioactively labeled AdoMet. […] Methylation of the previously reported non-histone substrates α -tubulin and STAT1 was not detectable at the peptide level and, therefore, they were excluded from further investigation.
# Peptide arrays containing fifteen amino acid long peptides were synthesized using the SPOT synthesis method[48] with an Autospot peptide array synthesizer (Intavis AG, Köln, Germany). After synthesis, the obtained membranes were pre-incubated in methylation buffer (20 mM Tris/HCl pH 9, 0.01% Triton X-100, 10 mM DTT, 1.5 mM MgCl2) for 5 min on a shaker. Thereafter, the membranes were incubated in methylation buffer supplemented with 0.76 µM radioactively labeled AdoMet (PerkinElmer) and 3–6 µM SETD2 enzyme for 60 min on a shaker. After methylation, the membranes were washed 5 times for 5 min in wash buffer (100 mM NH4HCO3, 1% SDS) and incubated in amplify NAMP100V (GE Healthcare) for 5 min. This was followed by the exposure of the membranes to a hyperfilm^TM high performance autoradiography (GE Healthcare) film at −80 °C in the dark. The films were developed with an Optimax Typ TR machine after different exposue times. For quantification the signal intensities were measured with the Phoretix^TM software and analyzed with Microsoft Excel.
# Supplementary Fig. 1: SETD2 protein and catalytic activity. a Purified His6-tagged SETD2 SET domain (1347-1711) was separated on an SDS-gel and […]
# stained with Coomassie BB. […]
# tubulin (33-47), STAT1 (518-532) and their corresponding target lysine to alanine mutant peptides were synthesized on a cellulose membrane. The membrane was incubated in methylation buffer supplemented with radioactively labeled AdoMet and SETD2. The signal of the transferred radioactive methyl groups was visualized by autoradiography.
# SETD2 [5] = target: T1, SETD2; details: ref [18],[19]; cited from earlier work
# Text: SETD2 is a PKMT initially in 2005 identified to methylate H3K36[8]. So far, lysine 36 in H3 was still the best substrate known for this enzyme at the peptide level. At the protein level, H3 methylation by SETD2 is weak, but it is strongly stimulated in the context of a nucleosome as shown here by us and previously by others. […] In thi ...
molecule,measurement,setting,value
"H3K36 peptide: H3K36 (27–43) peptide purchased from Intavis AG (KSAPATGGVKKPHRYRP; UniProt P68431 28-44, looked up, fragment)",Km,SETD2 [1],65 µM
"H3K36-GST: H3K36 (29–43) sequence cloned with C-terminal GST-tag (APATGGVKKPHRYRP; also: C-terminal GST tag fusion; UniProt P68431 30-44, looked up, fragment)",methylation of GST fusion proteins (in words),SETD2 [2],no signal was detected
same,H3K36me3 antibody Western Blot signal,SETD2 [3],very weak signal
B1,peptide spot methylation signal,SETD2 [4],did not show a detectable peptide methylation signal
same,reported methylation by SETD2 compared with H3K36,SETD2 [5],weaker than H3K36
